The values below come from the RNAGym collection of RNA variant scans (doi:10.7554/elife.90254).

Sequences and labels used below:
B1: OR4K15 (parent)
chain: GUUAACGGUCAUAGGCCAUGGAAACUAGGAGCACCAUUUCGCUGCCAGUGAAGAAAUGAACAAAGAAAAUCUGGGCCAGGCAGGCAUCAAAAGAAAUAGUCUUGCGCUCAACCAGAAAGUCUGUAAUCAUUUUAAGGGUA

The variants in the data set derive from B1. In words: self-cleavage, relative activity (ratio to wild type); higher = more cleavage; in vitro, sequencing; the parent is a self-cleaving ribozyme.
As for GAUAACGGUCAUAGGCCAUGGAAACUAGGAGCACCAUUUCGCUGCCAGUGAAGAAAUGAACAAAGAAAAUCUGGGCCAGGCAGGCAUCAAAAGAAAUAGCCUUGCGCUCAACCAGAAAGUCUGUAAUCAUUUUAAGGGUA, the self-cleavage amounted to 0.89.
Then GUUAACGGUCAUAGGCCCUGGAAACUAGGAGCACCAUUUCGCUGCCAGUGAAGAAAUGAACAAAGAAAAUCUGGGCCAGGCAGGCAUCAAAAGAGAUAGUCUUGCGCUCAACCAGAAAGUCUGUAAUCAUUUUAAGGGUA, with 2.19; and GUUAACGGUCAUAGGCCAUGGAAACUAGGAGCACCAUUUCGCUGCCAGUGAAGAUAUGAACAAAGAAAAUCUGGGCCAGGCAGGCAUCAAAAGAAGUAGUCUUGCGCUCAACCAGAAAGUCUGUAAUCAUUUUAAGGGUA, with 1.61; and GUUAACGGGCAUAGGCCAUGGAAACUAGGAGCACCAUUUCGCUGCCAGUGAAGAAAUGAACAAAGAAAGUCUGGGCCAGGCAGGCAUCAAAAGAAAUAGUCUUGCGCUCAACCAGAAAGUCUGUAAUCAUUUUAAGGGUA, with 1.
With GUUAACGGUCAUAGGCCAUGGAAACUAGGGGCACCAUUUCGCUGCCAGUGAAGAAAUGAACAAAGAAUAUCUGGGCCAGGCAGGCAUCAAAAGAAAUAGUCUUGCGCUCAACCAGAAAGUCUGUAAUCAUUUUAAGGGUA, the self-cleavage came out at 1.28.
Then GUUAACGGUCAUAGGCCAUGGAAACUAGGAGCACCAUUUCGCUGCCAGUGAAGAAAUGAACAAAGAAAAUCAGGGCCAGGCAGGCAUCAAAAGAAAUAGUCUUGCGCUCAACCAGGAAGUCUGUAAUCAUUUUAAGGGUA, with 0.04; and GCUAACGGUCAUAGGCCAUGGAAACUAGGAGCACCAUUUCGCUGCCAGUGAAGAAAUGAACAAAGAAAAUCUGGGCCAGGCAGGCAUCAAAAGAAAUAGUCAUGCGCUCAACCAGAAAGUCUGUAAUCAUUUUAAGGGUA, with 0.73.
With GUUAACGGUCAUAGGCCAUGGAAACUAGGAGCACCAUUUCGCUGCCAGUGAAGAAAUGAACAAAGAAAAUCUGGGCCAGGCAGGCAUCAAAAGAAAUAGUCUUGCGCUCAACCAGGAAGUCUGUAAUCGUUUUAAGGGUA, the self-cleavage worked out at 0.41.
Then GUUAACGGUCUUAGGCCAUGGAAACUAGGAGCACCAUUUCGCUGCCAGUGAAGAAAUGAACAAAGAAAAUCUGGGCCAGGCAGGCAUCAAAAGAAAUAGUCUUGCGCUCAACCAGAAAGCCUGUAAUCAUUUUAAGGGUA, with 0.69; and GUUAACGGUCAUAGGCCAUGGAAACUAGGAGCACCAUUUCGCUGCCAGUGAAGAAAUGAACAAAGAAAAUCUGGGCCAGGCAGGCAUCAAGAGAAAUAGUCUUGCGCUCAACCAGAAAGUCUGUAAUCAUUCUAAGGGUA, with 0.88; and GUUAACGGUCAUAGGCCAUGGGAACUAGGAGCACCAUUUCGCUGCCAGUGAAGAAAUGAACAAAGAAAAUCUGGGCCAGGCCGGCAUCAAAAGAAAUAGUCUUGCGCUCAACCAGAAAGUCUGUAAUCAUUUUAAGGGUA, with 0.25.
The same measure for GUUAACGGUCAUAGGCCAUGGAAACUAGGAGCACCAUUUCGCUGCCAGUGAAGAAAUGAACAAAGAAAAUCUGGGCCUGGCAGGCAUCAAAAGAAAUAGUCUUGCGCUCAACCAGAAAGUCUGUGAUCAUUUUAAGGGUA: 0.03; for GUUAACGGUCAUAGGCCAUGGAAACUAGGAGCACCAUUUCGCUGCCAGUGAAGAAAUGAACAAAGAAAACCUGGGCCAGGCAGGCAUCAAAAGAAAUAGUCUUGCGUUCAACCAGAAAGUCUGUAAUCAUUUUAAGGGUA: 0.02.
Consider GUUAACGGUCAUAGGCCAUGGAAACUAGGAGCACCAUUUCGCUGCCAGUGAAGAAAUGAACAAAGAAAAUCUGGGCCAGGCAGGCACCAAAAGAAAUAGUCCUGCGCUCAACCAGAAAGUCUGUAAUCAUUUUAAGGGUA, for which the self-cleavage is 2.08.
Then GUUAACGGUCAUAGGCCAUGGAAACUAGGAGCACCAUUUCGCUGCCAGUGAAGAAAUGAACAAAGAAAAUCUGGGCCAGGCAGGCAUCAAAAGAAUUAGUCUUGCACUCAACCAGAAAGUCUGUAAUCAUUUUAAGGGUA, with 0.01.
The same measure for GUUAACGGUCAUAGGCCAUGGAAACUAGGAGCACCAUUUCGCUGCCAGUGAAGAAAUGAACAAAGAAAAUCUGGGCCAGGCUGGCAUCAAAAGAAUUAGUCUUGCGCUCAACCAGAAAGUCUGUAAUCAUUUUAAGGGUA: 0.25; for GUUAACGGUCAUAGGCCAUGGAAACUAGGAGCACCAUUCCGCUGCCAGUGAAGAAAUGAACAAAGAAAAUCUGGGCCAGGCAGGCAUCAAAAGAAGUAGUCUUGCGCUCAACCAGAAAGUCUGUAAUCAUUUUAAGGGUA: 1.77; for GUUAACGGUCAUAGGCCAUGGAAACUAGGAGCACCAAUUCGCUGCCAGUGAAGAAAUGAACAAAGAAAAUCUGGGCCAGGCAGGCAUCAAAAGAAAUAGCCUUGCGCUCAACCAGAAAGUCUGUAAUCAUUUUAAGGGUA: 2.33.
Then GUUAACGGUCAUAGGCCAUGGAAACUAGGAGCACCUUUUCGCUGCCAGUGAAGAAGUGAACAAAGAAAAUCUGGGCCAGGCAGGCAUCAAAAGAAAUAGUCUUGCGCUCAACCAGAAAGUCUGUAAUCAUUUUAAGGGUA, with 1.46.
Take GUUAACGGUCAUAGGCCAUGGAAACUAGGAGCACCAUUUCGCUGCCAGUGAAGAAGUGAACAAAGAAAAUCUGGGCCAGGCAGGCAUCAAAAGAAAUAGUCUUGCGCUCAACCAGAAAGUCUGUAAUCAUUUUAUGGGUA: the self-cleavage was 0.62.
For GUUAACGGUCAUAGGCCAUGGAAACUAGGAGCACCAUUUCGCUGCCAGUGAAGAAAUGAACAAAGAAGAUCUGGGCCAGGCAGGCAUCAAAAGAAAUAGUCUUGCGCUCAACCAGAAAGUCUGUAAUCGUUUUAAGGGUA, the self-cleavage came out at 1.05.
The same measure for GUUAACGGUCAUAGGCCAUGGAAACUAGGAGCACCAUUUCGCUGCCCGUGAAGAGAUGAACAAAGAAAAUCUGGGCCAGGCAGGCAUCAAAAGAAAUAGUCUUGCGCUCAACCAGAAAGUCUGUAAUCAUUUUAAGGGUA: 1.43; for GUUAACGGUCAUAGGCCAUGGAAACUAGGAGCACCAUUUCGCUGCCAGUGAAGAAAUGAACAAAGAAAAUCUGGGCCAGGCAGGCAUCAAAGGAAAUAGUCGUGCGCUCAACCAGAAAGUCUGUAAUCAUUUUAAGGGUA: 0.61.
The same measure for GUUAACGGUCAUAGGCCAUGGAAACUAGGAGCACCAUUUCGCUGCCAGUGAAGAAAUGAACAAGGAAAAUCUGGGCCAGGCAGGCAUCAAAAGAAAUAGUCUUGCGCUCAACCAGAACGUCUGUAAUCAUUUUAAGGGUA: 0.2; for GUUAACGGUCAUAGGCCAUGGAAACUAGGAGCACCAUUUCGCUGCCAGUGAAGAAAGGAACAAAGAAAAUCUGGGCCAGGUAGGCAUCAAAAGAAAUAGUCUUGCGCUCAACCAGAAAGUCUGUAAUCAUUUUAAGGGUA: 0.29.
Then GUUAACGGUCAUAGGCCAUGGAAACUAGGAGCACCAUUUCGCUGCCAGUGAAGAAAUGAACAAAGAAAAUCUGGGCCAGGCAGGCACCAAAAGAAAUAGUCUUGCGCUCAACCAGAAAGUCUGUAAUCAUUUUAAGGGUG, with 1.49.
For GUUAACGGUCAUAGGCCAUGGAAACUAGGAGCACCACUUCGCUGCCAGUGAAGAAAUGAACAAAGAAAAUCUGGGCCAGGUAGGCAUCAAAAGAAAUAGUCUUGCGCUCAACCAGAAAGUCUGUAAUCAUUUUAAGGGUA, the self-cleavage worked out at 0.49.
The same measure for GUUAACGGUCAUAGGCCAUGGGAACUAGGAGCACCAUUUCGCUGCCAGUGAAGAAAUGAACAGAGAAAAUCUGGGCCAGGCAGGCAUCAAAAGAAAUAGUCUUGCGCUCAACCAGAAAGUCUGUAAUCAUUUUAAGGGUA: 1.72; for GUUAACGGUCAUAGGCCACGGAAACUAGGUGCACCAUUUCGCUGCCAGUGAAGAAAUGAACAAAGAAAAUCUGGGCCAGGCAGGCAUCAAAAGAAAUAGUCUUGCGCUCAACCAGAAAGUCUGUAAUCAUUUUAAGGGUA: 1.02; for GUUAACGGUCAUAGGCCUUGGAAACUAGGAGCACCAUUUCACUGCCAGUGAAGAAAUGAACAAAGAAAAUCUGGGCCAGGCAGGCAUCAAAAGAAAUAGUCUUGCGCUCAACCAGAAAGUCUGUAAUCAUUUUAAGGGUA: 1.09.
The same measure for GUUAACGGUCAUAGGCCAUGGAAACUAGGAGCACCAUUUCGCUGCCAGUGAAGAAAUGAACAAAGAAAAUCUGGGCCAGGCAGGCAUCAAAAGAGAUAGUCUUGCGCUCAACCAGAGAGUCUGUAAUCAUUUUAAGGGUA: 2.65; for GUUAACGGUCAUAGGCCAUGGAAACUAGGAGCACCAUUUCGCUGCCAGUGAAGAAAUGAACAAGGAAAAUCUGGGCCAGGCAGGCUUCAAAAGAAAUAGUCUUGCGCUCAACCAGAAAGUCUGUAAUCAUUUUAAGGGUA: 2.21.
The same measure for GUUAACGGUCAUAGGCCUUGGAAACUAGGAGCACCAUUUCGCUGCCAGUGAAGAAAUGAACAAAGAAAAUCUGGGCCAGGCAGGCAUCAUAAGAAAUAGUCUUGCGCUCAACCAGAAAGUCUGUAAUCAUUUUAAGGGUA: 1.13.
For GUUAACGGUCAUAGGCCAUGGAAACUAGGAGCACCAUUUCGCUGCCAGUGCAGAAAUGAACAAAGAAAAUCUCGGCCAGGCAGGCAUCAAAAGAAAUAGUCUUGCGCUCAACCAGAAAGUCUGUAAUCAUUUUAAGGGUA, the self-cleavage was 0.
The same measure for GUUAACGGUCAUAGGCCAUGGAAACUAGGAGCACCAUUUCGCUGCAAGUGAAGAAAUGAACAAAGAAAAUCUGGGCCAGGCAGGCAUCAAAAGAAAUAGUCUUGCGCUCUACCAGAAAGUCUGUAAUCAUUUUAAGGGUA: 1.53; for GUUAACGGUCUUAGGCCAUGGAAACUAGGAGCGCCAUUUCGCUGCCAGUGAAGAAAUGAACAAAGAAAAUCUGGGCCAGGCAGGCAUCAAAAGAAAUAGUCUUGCGCUCAACCAGAAAGUCUGUAAUCAUUUUAAGGGUA: 0.98.
Then GUUAACGGUCAUAGGCAAUGGAAACUAGGAGCACCAUUUCGCUGCCAGUGAAGAAAUGAACAAAGAAAAUCUGGGCCAGGCAGGCAUCAAAAGAAAUAGUCUUGCGCUCAACCAGAAGGUCUGUAAUCAUUUUAAGGGUA, with 0.97.
Then GUUAACUGUCAUAGGCCAUGGAAACUAGGAGCACCAUUUCGCUGCCAGUGAAGAAAUGAACAAAGAAAAUCUGGGCCAGGCAGGCUUCAAAAGAAAUAGUCUUGCGCUCAACCAGAAAGUCUGUAAUCAUUUUAAGGGUA, with 1.63; and GUUAACGGUCAUAGGCCAUGGAAACUAGGAGCACCAUUUCGCUGCCAGUGAAGAAACGAACAAAGAAAAUCUGGGCCAGGCAGGCAUCAAAAGAGAUAGUCUUGCGCUCAACCAGAAAGUCUGUAAUCAUUUUAAGGGUA, with 1.76.
For the variant GUUAACGGUCAUAGGCCAUGGAAACUAGGAGCUCCAUUUCGCUGCCAGUGAAGAAAUGAACAAAGAAAAUCUGGGCCAGGCAGGCAUCAAAAGAAAUAGUCUUGCGCUCAACCAGAAAGUCCGUAAUCAUUUUAAGGGUA, the self-cleavage amounted to 1.02.
For the variant GUUAACGGUCAUAGGCCAUGGAAACUAGGAGCACCAUUUCGCUGCCAGUGAAGAAAUGAACAAAGAAAAUCUGGGCCAGGCAGGCAUCAAAAGAAAUAGUCCUGCGCUCAACCAGAAAGUCUGUAAUCAAUUUAAGGGUA, the self-cleavage stood at 1.61.
